The record followed here is the RNAGym collection of RNA variant scans (doi:10.7554/elife.80360).

Sequences and labels used below:
B1: Hammerhead Ribozyme (parent)
chain: ACCGGAUGUGCUUUCCGGUCUGAUGAGUCCGUGAGGACGAAACAG

The variants in the data set derive from B1. Put plainly: self-cleavage, relative activity (ratio to wild type); higher = more cleavage; co-transcriptional.
In the case of A23G G31C, the self-cleavage came to 0.442.

Take A23G G31U: the self-cleavage was determined as 0.448.

A23G G31A: the self-cleavage turned out to be 0.403. Regarding A23G G27C, the self-cleavage stood at 0.285. Then A23G G27A, with 0.297; and A23G G27U, with 0.282. Under U24A C38U stands 0.993; under U24A C38G, 0.645; under U24A C38A, 0.696. Under G22U C30A stands 0.296; under G22U C30G, 0.277; under G22U C30U, 0.344. As to G22U G39A, the self-cleavage is 0.35. For the variant G22U G39C, the self-cleavage is 0.316. Under G22U G39U stands 0.305; under G22U, 0.362. Under A23U A44G stands 0.706. For the variant A23U A44C, the self-cleavage was found to be 0.438. A23U A44U: the self-cleavage is 0.336. Then A23G A37U, with 0.28; and A23G A37C, with 0.3; and A23G A37G, with 0.314. With A23C C30A, the self-cleavage worked out at 0.306. For the variant A23C C30U, the self-cleavage was 0.578.

Consider A23C C30G, for which the self-cleavage was found to be 0.354. Consider G22U G33C, for which the self-cleavage was found to be 0.363.

As to G22U G33U, the self-cleavage stood at 0.416. Then G22U G33A, with 0.307. A23G U24C: the self-cleavage was 0.488.

As for A23G U24G, the self-cleavage stood at 0.283. Then A23G U24A, with 0.645. Under A23C G36A stands 0.412. Consider A23C G36U, for which the self-cleavage turned out to be 0.335.

Consider A23C G36C, for which the self-cleavage is 0.351. Under A23U G35C stands 0.356; under A23U G35U, 0.37.

Regarding A23U G35A, the self-cleavage was determined as 0.471. Then A23G G45C, with 0.33; and A23G G45A, with 0.331; and A23G G45U, with 0.297. Under A23U A41G stands 0.301.

As to A23U A41U, the self-cleavage was 0.307. A23U A41C: the self-cleavage stood at 0.33. In the case of A23U A42U, the self-cleavage was found to be 0.337. In the case of A23U A42G, the self-cleavage was 0.375. Under A23U A42C stands 0.331. Regarding U24A A42G, the self-cleavage was 0.24. Under U24A A42U stands 0.354; under U24A A42C, 0.363.

On to G22U A41G, for which the self-cleavage was 0.311. Then G22U A41U, with 0.353; and G22U A41C, with 0.372; and A23U U28A, with 0.375.

On to A23U U28G, for which the self-cleavage was 0.36. Then A23U U28C, with 0.356.

Turning to U24A G25U, the self-cleavage was 0.282. Then U24A G25C, with 0.366.

In the case of U24A G25A, the self-cleavage is 0.243.

Consider A23U G25U, for which the self-cleavage came to 0.315. Under A23U G25C stands 0.31; under A23U G25A, 0.267. As for G22U A40G, the self-cleavage was found to be 0.288.

For G22U A40C, the self-cleavage was 0.368. On to G22U A40U, for which the self-cleavage came out at 0.332. Consider U24A, for which the self-cleavage was determined as 1.03. Then U24A G31U, with 0.927; and U24A G31A, with 1.15; and U24A G31C, with 0.814. Take A23C: the self-cleavage was 0.547. Under A23G stands 0.439; under A23U, 0.425.

Regarding A23C C43U, the self-cleavage came to 0.325. With A23C C43A, the self-cleavage is 0.343. Then A23C C43G, with 0.274; and U24A C43G, with 0.374; and U24A C43A, with 0.341. For U24A C43U, the self-cleavage turned out to be 0.518. Then A23U A26C, with 0.379.

For the variant A23U A26U, the self-cleavage came to 0.374. Then A23U A26G, with 0.304; and A23G A26G, with 0.327; and A23G A26C, with 0.263. With A23G A26U, the self-cleavage is 0.3. Then A23G G25U, with 0.321. Then A23G G25C, with 0.333.

As to A23G G25A, the self-cleavage is 0.311.

For the variant U24A A37U, the self-cleavage was 0.771.

On to U24A A37C, for which the self-cleavage worked out at 1.03. As to U24A A37G, the self-cleavage is 1.09. Regarding U24A A41G, the self-cleavage was determined as 0.473. Then U24A A41U, with 0.279; and U24A A41C, with 0.371. Under A23C A26G stands 0.212; under A23C A26U, 0.33; under A23C A26C, 0.376. In the case of A23U G39U, the self-cleavage was 0.315. For A23U G39C, the self-cleavage turned out to be 0.341. On to A23U G39A, for which the self-cleavage was 0.331.

Consider U24A A34G, for which the self-cleavage was 0.777. Under U24A A34C stands 0.88; under U24A A34U, 0.849. With A23C U32A, the self-cleavage worked out at 0.466. With A23C U32C, the self-cleavage turned out to be 0.509. For the variant A23C U32G, the self-cleavage is 0.383.

Regarding G22C U32G, the self-cleavage is 0.315. Then G22C U32A, with 0.371; and G22C U32C, with 0.335; and G22U G27A, with 0.305. Under G22U G27C stands 0.347. Consider G22U G27U, for which the self-cleavage was 0.273.

With A23G G39C, the self-cleavage was found to be 0.33. Then A23G G39A, with 0.301. For A23G G39U, the self-cleavage is 0.347. On to A23G U32A, for which the self-cleavage amounted to 0.387. Then A23G U32C, with 0.375. For A23G U32G, the self-cleavage amounted to 0.366.

Regarding A23U U32A, the self-cleavage turned out to be 0.376. Under A23U U32G stands 0.41; under A23U U32C, 0.311; under A23G C29U, 0.356. Under A23G C29A stands 0.319; under A23G C29G, 0.26. Then A23G C43G, with 0.35.

As to A23G C43A, the self-cleavage stood at 0.304.

Consider A23G C43U, for which the self-cleavage was found to be 0.269. Under G22U U28G stands 0.294; under G22U U28C, 0.312; under G22U U28A, 0.326. Under A23C G45C stands 0.376; under A23C G45U, 0.377. Then A23C G45A, with 0.302.

G22U A37U: the self-cleavage came out at 0.296. Then G22U A37C, with 0.3; and G22U A37G, with 0.417. In the case of A23U C29G, the self-cleavage was found to be 0.345. On to A23U C29U, for which the self-cleavage is 0.322. Under A23U C29A stands 0.352; under A23U A34G, 0.358; under A23U A34U, 0.28. Then A23U A34C, with 0.345; and A23C A41C, with 0.313. On to A23C A41G, for which the self-cleavage was 0.394.

As to A23C A41U, the self-cleavage is 0.361. Then G22C G39A, with 0.364; and G22C G39U, with 0.286. Under G22C G39C stands 0.375; under A23C G25A, 0.331. As for A23C G25U, the self-cleavage came to 0.298. In the case of A23C G25C, the self-cleavage came out at 0.37. Consider G22U U24G, for which the self-cleavage was found to be 0.361. Then G22U U24C, with 0.348. Regarding G22U U24A, the self-cleavage turned out to be 0.316. A23G A44G: the self-cleavage came to 0.55. Under A23G A44U stands 0.339. Then A23G A44C, with 0.353. Then A23C C38G, with 0.371; and A23C C38U, with 0.316.

On to A23C C38A, for which the self-cleavage was 0.327. Take G22U C43G: the self-cleavage was found to be 0.348.

G22U C43U: the self-cleavage was found to be 0.305.

Regarding G22U C43A, the self-cleavage worked out at 0.293. Under A23G A42U stands 0.335. Consider A23G A42G, for which the self-cleavage was determined as 0.324.

With A23G A42C, the self-cleavage came to 0.31.

As to G22U A34C, the self-cleavage came to 0.267. Then G22U A34G, with 0.308; and G22U A34U, with 0.327.
